Results published in patent US20060073571A1 (CORNELL RESEARCH FOUNDATION, published 2006).

B1: human chorionic gonadotropin (hCG), highly purified, CR-125, NICHD (ligand)
chain 1: not shown
chain 2: SKEPLRPRCRPINATLAVEKEGCPVCITVNTTICAGYCPTMTRVLQGVLPALPQVVCNYRDVRFESIRLPGCPRGVNPVVSYAVALSCQCALCRRSTTDCGGPKDHPLTCDDPRFQDSSSSKAPPPSLPSPSRLPGPSDTPILPQ

Tests used:
[1] = target: recombinant chimeric hLH-R-hCG-β fusion protein (full-length human lutropin hormone receptor, Arg-Ser linker, … (human)); experiment: cell-based or functional assay
[2] = target: B1; experiment: displacement of biotinylated-hCG by unlabeled hCG on transfected Sf9 cells, HRP-streptavidin ELISA
Method: A competitive binding assay was performed to determine whether hCG would bind to the chimeric protein containing both hLH-R-ECD and hCG-β-CTP. After 24 hr of transfection with recombinant baculovirus, Sf9 insect cells were incubated for 24 hr at 27° C. with 20 ng/μl of biotinylated-hCG and increasing concentrations of unlabeled hCG as the competitor. The Sf9 cells infected with the recombinant baculovirus containing ECD of LH-R alone was set up as the control. The binding of biotinylated-hCG on the surface of the Sf9 insect cells was examined by ELISA using horseradish peroxidase (HRP)-streptavidin conjugate.

For B1, the “intracellular cAMP, increase over baseline” value [1] was roughly 6 fold.

B2: recombinant chimeric protein hLH-R-ECD-hCG-β-CTP (extracellular domain of hLH-R, Gly-Thr linker, carboxyl terminal peptide of hCG-β) (receptor)
chain: LPRALREALCPEPCNCVPDGALRCPGPTAGLTRLSLAYLPVKVIPSQAFRGLNEVIKIEISQIDSLERIEANAFDNLLNLSEILIQNTKNLRYIEPGAFINLPRLKYLSICNTGIRKFPDVTKVFSSESNFILEICDNLHITTIPGNAFQGMNNESVTLKLYGNGFEEVQSHAFNGTTLTSLELKENVHLEKMHNGAFRGATGPKTLDISSTKLQALPSYGLESIQRLIATSSYSLKKLPSRETFVNLLEATLTYPSHCCAFRNLPTKEQNFSHSISENFSKQCESTVRKVSNKTLYSSMLAESELSGWDYEYGFCLPKTPRCAPEPGTLTCDDPRFQDSSSSKAPPPSLPSPSRLPGPSDTPILPQ
notes: The vector was pBlueBac4.5/V5-His; also called chimera 3; hLH-R-ECD/hCG-CTP
B2: binds [2].
